Results on three compounds are retold here after paper PMC3696110, “Hsp70 Oligomerization Is Mediated by an Interaction between the Interdomain Linker and the Substrate-Binding Domain” (PLoS ONE, 2013).

For data set [1] the following is noted: previously reported; ref [S3]; cited from earlier work. On the procedure: Supplementary file pone.0067961.s005.tif: Figure S4 Concentration dependency of the analytical SEC chromatograms of the 'C-term' variant. The protein concentrations used were 1µM (black line), 2µM (orange line), 5 µM (pink line), 10 µM (cyan line), 70 µM (red line) and 125 µM (green line). Essentially the same elution profile was found for all the protein concentrations used. At the top the chromatogram the previously reported Stokes radii of the standard proteins used to calibrate the column are reported: conalbumin (40.4 Å), ovalbumin (30.5 Å), carbonic anhydrase (23.6 Å) [S3], ribonuclease ...

Data set [2] deals with T1, ΔLSBD641 (Homo sapiens, UniProt P0DMV8).
T1 construct: ΔLSBD641 (394-641), corresponding to SBD641 without the first ten residues of the interdomain linker; hexa-His (N, cleaved yes); made in house; host or cells: E. coli BL21 (DE3) Gold, pET-28b
T1 sequence (P0DMV8 395-641, stated change not applied): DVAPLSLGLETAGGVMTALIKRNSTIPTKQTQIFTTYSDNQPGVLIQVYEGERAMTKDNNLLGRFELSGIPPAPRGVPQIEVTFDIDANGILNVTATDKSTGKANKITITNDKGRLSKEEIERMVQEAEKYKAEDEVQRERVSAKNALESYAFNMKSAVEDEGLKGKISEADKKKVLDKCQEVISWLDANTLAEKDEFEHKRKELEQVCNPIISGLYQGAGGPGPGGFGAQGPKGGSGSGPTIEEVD
The experiment in a line: Fluorescence titration of dansyl-NR peptide binding. The following applies: 2 µM dansyl-NR peptide, fluorescence ex 330 nm; 50 mM Tris pH 7.4, 150 mM KCl, 5 mM MgCl2; 1 h at 25°C; single-site fit; average of two samples; read-out: Kd (apparent dissociation constant). On the procedure:
(§1) The interaction between the different Hsp70 variants and the NR peptide was studied in 50 mM Tris buffer at pH 7.4, with 150 mM KCl, and 5 mM MgCl2 using fluorescence spectroscopy by titrating different concentrations of chaperone into a solution containing 2 µM dansyl-NR peptide (N-terminally labeled; Genemed Synthesis Inc., San Antonio, TX, USA) after incubating the mixtures for 1 h at 25°C. The concentration of dansyl-NR peptide was calculated using an extinction coefficient at 327 nm of 4300 M^-1.cm^-1 [39]. The fluorescence emission spectrum of each sample was recorded from 400 to 630 nm after excitation at 330 nm, and the data reported correspond to the average intensity at the maximum emission wavelength of two different samples for which ten spectra were recorded. The increase in fluorescence signal was plotted as a function of chaperone concentration (Figure S2), and analyzed assuming single-site binding using the following equation:
(§2) ΔF=ΔFmaxΘL=ΔFmax/2LT[(PT+LT+Kd)−(PT+LT+Kd)^2−4PTLT] (1)
(§3) where ΘL is the fraction of bound ligand, ΔF is the increase in fluorescence intensity observed at a given concentration of Hsp70 variant, ΔF max is the increase in fluorescence at saturation, L T and P T are the total ligand and protein concentration respectively, and K d is the apparent dissociation constant of the complex. The fraction of bound ligand was plotted as a function of protein concentration in order to compare affinities between the different chaperone variants.

Data set [3] concerns the target T2, SBD556 (Homo sapiens, UniProt P0DMV8, L542Y).
T2 construct: SBD556 (384-556), which lacks helices C, D and E and the C-terminal disordered region; hexa-His (N, cleaved yes); made in house; host or cells: E. coli BL21 (DE3) Gold, pET-28b
The data set is described as above. On the procedure:
as §1, §2, §3

Data set [4] addresses T3, SBD641 (Homo sapiens, UniProt P0DMV8).
T3 construct: SBD641 (384-641), corresponding to the full-length SBD; hexa-His (N, cleaved yes); made in house; host or cells: E. coli BL21 (DE3) Gold, pET-28b
Described as above. The following applies: 2 µM dansyl-NR peptide, fluorescence ex 330 nm; 50 mM Tris pH 7.4, 150 mM KCl, 5 mM MgCl2; 1 h at 25°C; single-site fit; average of two samples; read-out: Kd (apparent dissociation constant). On the procedure:
as §1, §2, §3

In data set [5] the target is T4, FL-Hsp70 (Homo sapiens, UniProt P0DMV8).
T4 construct: 35% of full-length Hsp70 (FL-Hsp70) exists as oligomeric species; hexa-His (N, cleaved yes); made in house; host or cells: E. coli BL21 (DE3) Gold, pET-28b
T4 sequence (P0DMV8 whole entry): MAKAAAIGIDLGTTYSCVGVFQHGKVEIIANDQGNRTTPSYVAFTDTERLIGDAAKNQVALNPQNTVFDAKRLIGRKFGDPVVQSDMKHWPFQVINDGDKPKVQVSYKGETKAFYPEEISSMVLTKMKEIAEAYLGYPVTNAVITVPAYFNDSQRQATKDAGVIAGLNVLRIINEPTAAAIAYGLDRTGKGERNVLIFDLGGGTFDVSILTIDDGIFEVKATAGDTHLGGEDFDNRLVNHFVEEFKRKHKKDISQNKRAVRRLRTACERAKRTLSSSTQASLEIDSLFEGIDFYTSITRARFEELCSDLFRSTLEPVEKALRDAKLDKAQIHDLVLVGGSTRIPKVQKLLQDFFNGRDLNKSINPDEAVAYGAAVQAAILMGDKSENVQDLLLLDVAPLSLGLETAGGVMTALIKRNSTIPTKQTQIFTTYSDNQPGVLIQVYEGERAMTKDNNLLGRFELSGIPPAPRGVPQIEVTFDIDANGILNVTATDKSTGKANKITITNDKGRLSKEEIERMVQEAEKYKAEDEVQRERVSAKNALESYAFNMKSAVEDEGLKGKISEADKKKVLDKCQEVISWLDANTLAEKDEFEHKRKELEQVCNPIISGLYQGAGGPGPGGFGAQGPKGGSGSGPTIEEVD
The description is as above. The note with it: 2 µM dansyl-NR peptide, fluorescence ex 330 nm; 50 mM Tris pH 7.4, 150 mM KCl, 5 mM MgCl2; 1 h at 25°C; single-site fit; average of two samples; read-out: Kd (apparent dissociation constant). As to the method: as §1, §2, §3

Data set [6] can be described thus: Secondary structure content from far-UV CD. Format: physicochemical, human. The following applies: K2D software; 20 µM protein, 7 mM Tris pH 7.4, 170 mM KCl, 5 mM MgCl2; 25 °C. As to the method: Far-UV CD spectra for all protein variants were recorded using a Jasco J-810 spectropolarimeter equipped with a Peltier holder, using a 0.1 cm path length cuvette. Typically, samples contained 20 µM protein in 7 mM Tris buffer at pH 7.4, containing 170 mM KCl and 5 mM MgCl2. The far-UV CD spectra of all the variants in their native, thermally denatured and refolded states were recorded from 198 to 250 nm, and the spectrum of the buffer was systematically subtracted from the spectra of all protein samples. The secondary structure content was estimated from the far-UV CD spectrum for each protein variant using K2D software.

Data set [7] in a line: Thermal denaturation monitored by far-UV CD. Format: physicochemical, human. On the procedure: Protein structural stability was analyzed by monitoring the CD signal at 222 nm upon thermal denaturation. Thermal runs were performed from 5 to 90 °C at a rate of 1 °C. min^-1. Data points were acquired every 0.1 °C with a response time of 2 s and a bandwidth of […]. After thermal denaturation, each protein sample was cooled to the starting temperature, and a second denaturation curve recorded in order to analyse the degree of reversibility of the denaturation process. Analysis of the thermal unfolding curves was performed assuming a three-state unfolding model.

Data set [8] in a line: Analytical SEC relative populations of oligomeric forms. Format: physicochemical, human. The following applies: Superdex 75, 4 °C, 50 mM Tris pH 7.4, 150 mM KCl. As to the method:
(§4) Analytical SEC was performed at 4 °C using a Superdex 75 10/300 GL column (GE Healthcare LifeSciences, Little Chalfont, U.K.), which had previously been calibrated using a mixture of standard proteins (Gel Filtration LMW Calibration Kit; GE Healthcare LifeSciences, Little Chalfont, U.K.). Typically, samples of the various constructs contained 70 µM of protein in 50 mM Tris buffer at pH 7.4, with 150 mM KCl, 5 mM MgCl2 and were incubated for 15 min (unless otherwise specified) at room temperature before being loaded onto the column for analysis. To evaluate the reversibility of the oligomerization process, the different elution peaks obtained for each protein variant were subsequently analyzed after concentrating the different fractions using AmiconUltra-0.5, Ultracel-3 Membrane, 3 kDa (Millipore, Bedford, MA, USA). A similar analysis was also performed at 6 µM concentration for all the protein variants to allow for a direct comparison between the results obtained by SEC and MS experiments.
The influence of substrate binding on the oligomerization properties of all the variants was examined by using the well-characterized Hsp70 substrate, the NR peptide (NRLLLTG, Genemed Synthesis Inc., San Antonio, TX, USA). A 14-fold excess of the peptide was added in each case to a fresh protein sample, incubated for 1 h at room temperature, unless otherwise specified, and then loaded onto the Superdex 75 10/300 GL column for analysis. The relative quantities of the different protein species were estimated by analysing the chromatographic profile using a Gaussian function for each elution peak (OriginPro 8, Originlab, Northampton, MA, USA) and measuring the relative area under each peak.

A short description of data set [9]: SEC/DLS of oligomeric species. Format: physicochemical, human. The note with it: SEC, ΔLSBD641 at the same protein concentration, no NR peptide. On the procedure: as §4, with “A similar analysis was also performed at 6 µM concentration for all the protein variants to allow for a direct comparison between the results obtained by SEC and MS experiments.” left out
Dynamic light scattering. Representative size distributions of SBD641 at different protein concentrations in Tris 50 mM, pH 7.4, 150 mM KCl, 5 mM MgCl2 were recorded at 25 °C on the Zetasizer Nano ZS instrument (Malvern Instruments Ltd.) at 633 nm after 1 h of incubation at room temperature. […] Some samples were analyzed after 1 h and 4 h incubation at room temperature and the same intensity size distributions were obtained. The samples were centrifuged for 15 min at 13200 rpm to remove dust particles and the scattered light was detected at an angle of 173°. […]

Data set [10] in a line: nESI-MS relative populations of oligomeric forms. The following applies: 6-15 µM protein, 150 mM ammonium acetate, pH 7.4, estimated error 5% (SD of 3-4 independent experiments). Format: physicochemical, human. As to the method:
Prior to MS analysis, samples were buffer exchanged into 150 mM ammonium acetate, pH 7.4, using Micro Bio-spin 6 columns (Bio-Rad, Digilab Division, Cambridge, MA, USA). For all the experiments protein concentrations ranging from 6 to 18 µM were used. In the case of the substrate binding experiments, proteins were analyzed in the presence of a 1: 1 molar ratio of the NR peptide; this substrate concentration, lower than in the SEC experiments, was chosen to ensure adequate resolution of the various charge state series, which is critical for unambiguous assignment of substrate-bound states. Due to suppression effects during nESI ionization, a relatively limited set of molar ratios could be investigated by in this way.
nESI-MS spectra were obtained according to a previously published protocol on an orthogonal time-of-flight mass spectrometer with a Z-spray source (LCT, Waters, Manchester, UK) in positive ion mode using the following parameters: capillary voltage, 1500 V; sample cone voltage, 120 V (unless otherwise specified); extraction cone voltage, 1V; and ion transfer stage pressure, 8.8 mbar. Spectra were calibrated externally using a 33 mg/ml solution of cesium iodide. Data were acquired and processed with MassLynx software (Waters, Manchester, UK), and are shown with minimal smoothing and without background subtraction. The relative abundances of the different oligomeric states were estimated from the intensities of the most abundant charge states for each construct and are expressed as a percentage of the total intensity.

Setting [11] is: 70 µM protein, 5 mM MgCl2, 15 min at room temperature, estimated error 3.5% (SD of 3-4 independent experiments).
The mark [12] stands for this setting: 6-15 µM protein, 5 mM MgCl2, estimated error 3.5% (SD of 3-4 independent experiments).

“And” between values parts separate entries of the source, which are not always exact repeats. Equal entries are not always repeated.

T2 sequence (P0DMV8 384-556 L542Y): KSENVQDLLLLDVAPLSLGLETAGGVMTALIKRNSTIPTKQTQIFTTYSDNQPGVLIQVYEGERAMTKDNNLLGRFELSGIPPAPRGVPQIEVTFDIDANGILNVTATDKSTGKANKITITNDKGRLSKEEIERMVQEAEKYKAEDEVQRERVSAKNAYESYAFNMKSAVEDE
T3 sequence (P0DMV8 384-641): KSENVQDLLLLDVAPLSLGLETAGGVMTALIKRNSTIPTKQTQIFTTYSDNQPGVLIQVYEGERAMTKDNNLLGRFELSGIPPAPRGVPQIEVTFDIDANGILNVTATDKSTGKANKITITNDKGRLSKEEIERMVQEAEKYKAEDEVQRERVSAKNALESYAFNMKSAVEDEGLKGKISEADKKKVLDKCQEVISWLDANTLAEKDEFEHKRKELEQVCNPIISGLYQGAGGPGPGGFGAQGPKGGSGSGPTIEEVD

With carbonic anhydrase [reference compound], the “Stokes radius of SEC standard protein” value in [1] is recorded as 23.6 Å.
For the compound `CC(C)C[C@H](NC(=O)[C@H](CC(C)C)NC(=O)[C@H](CCCNC(=N)N)NC(=O)[C@@H](N)CC(N)=O)C(=O)N[C@@H](CC(C)C)C(=O)N[C@H](C(=O)NCC(=O)O)[C@@H](C)O` [NR peptide, NRLLLTG], the Kd in data set [2] was 8 ± 2 µM; in data set [3] (2 µM dansyl-NR peptide, fluorescence ex 330 nm, 50 mM Tris pH 7.4, 150 mM KCl, 5 mM MgCl2, 1 h at 25°C, single-site fit, average of two samples, read-out: Kd (apparent dissociation constant)), 53 ± 16 µM; in data set [4] it was 11 µM and 1 to 10 µM; in data set [5] it was 9 µM and 8 to 10 µM. Further, the “Reduction of fluorescence intensity at saturation (Fmax)” value in data set [3] (fluorescence titration, SBD556 vs other chaperone variants) was ~25%.
In the case of “ΔLSBD641: SBD641 without the first ten residues of the interdomain linker (SENVQDLLLL), residues 394-641”, in data set [6], the “Random-coil content estimated from far-UV CD” value is listed as 47%, the “α-helix content estimated from far-UV CD” value is recorded as 35% and the “β-sheet content estimated from far-UV CD” value is listed as 18%. Further, the “∆Hm, 1st transition” value in [7] (CD 222 nm, 20 µM protein, 7 mM Tris pH 7.4, 170 mM KCl, 5 mM MgCl2, three-state fit (C-term two-state), SE of fit) is 45.6 ± 2.4 kcal/mol. In [7] (CD 222 nm, 20 µM protein, 7 mM Tris pH 7.4, 170 mM KCl, 5 mM MgCl2, three-state fit, SE of fit), the “∆Hm, 2nd transition” value turned out to be 61.0 ± 1.1 kcal/mol. Moreover, the “Tm, 1st transition” value in [7] (CD 222 nm, 5 to 90 °C at 1 °C/min, 20 µM protein, 7 mM Tris pH 7.4, 170 mM KCl, 5 mM MgCl2, three-state fit (C-term two-state), SE of fit) was found to be 44.9 ± 0.3 °C. Further, in data set [7] (CD 222 nm, 5 to 90 °C at 1 °C/min, 20 µM protein, 7 mM Tris pH 7.4, 170 mM KCl, 5 mM MgCl2, three-state fit, SE of fit), the “Tm, 2nd transition” value was 72.3 ± 0.1 °C. Further, in data set [7] (far-UV CD), the “Degree of irreversibility of overall protein thermal denaturation” value is listed as “exactly the same behaviour”. Besides, in [8] (setting [11]), the Dimer population was 14%, the Monomer population is 86% and the Total oligomer population is 14%. For the same compound, in [8] (setting [12]), the Dimer population is 9%, the Monomer population is > 90% and the Total oligomer population was 9%. Also, the Monomer population in data set [8] (6-15 µM protein, 5 mM MgCl2, estimated error 3.5% (SD of 3-4 independent experiments), listed as ∆LSBD641) is given as 91%. Besides, in data set [9], the Oligomer fraction result is “ca. 0.1”. In [10], the Dimer population is listed as 8%, the Monomer population is listed as > 90%, the Total oligomer population was 8% and the Trimer population was 0%. In addition, the Monomer population in data set [10] (listed as ∆LSBD641) was 92%.
